Changes are numbered by the printed parent chain. Blank lines part the entries; values can stand above or below the binder they belong to.
Columns and labels:
[1] = molecular target: T1, human CX3CR1 (human, UniProt P49238 1-355); test: A647-fractalkine competition FACS, HEK293-huCX3CR1
T1 construct: overexpressed on CHO, BA/F3 or HEK293T cells; also called huCX3CR1; hCX3CR1
T1 sequence: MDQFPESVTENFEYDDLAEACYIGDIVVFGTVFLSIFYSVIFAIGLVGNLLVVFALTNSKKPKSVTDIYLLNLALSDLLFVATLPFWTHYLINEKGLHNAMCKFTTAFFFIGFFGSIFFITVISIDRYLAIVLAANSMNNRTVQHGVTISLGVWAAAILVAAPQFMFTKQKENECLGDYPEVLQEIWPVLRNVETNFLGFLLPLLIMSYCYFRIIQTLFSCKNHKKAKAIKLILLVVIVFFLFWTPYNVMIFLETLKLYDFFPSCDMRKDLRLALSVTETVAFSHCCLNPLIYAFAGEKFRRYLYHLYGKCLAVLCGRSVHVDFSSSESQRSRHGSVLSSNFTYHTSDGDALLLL
Description: (§1) Periplasmic extracts were screened in a human CX3CR1/human Fractalkine FACS competition assay to assess the blocking capacity of the expressed VHHs. Human CX3CR1 was presented on CHO cells overexpressing CX3CR1. Both a setup using cells harvested from an actively growing culture and a setup using frozen cells was used. As a detection reagent labeled fractalkine was used (R&D Systems, Minneapolis, Minn., USA) labeled with alexa647 (A647-Fractalkine) at a degree of labeling of 1. To setup the assay, first a titration series of the labeled fractalkine was performed on the CHO-huCX3CR1 cells in order to determine the EC50 value for binding. Initially screening was performed at a higher concentration of fractalkine (3 nM) to increase the assay robustness. To increase the sensitivity of the screening to a maximum, the EC30 concentration (1 nM) was chosen for subsequent screening. In brief 50 μl of periplasmic extract was added to 6 nM labeled fractalkine (50 μ;) and 200 000 CHO-huCX3CR1 cells. After one hour incubation at 4 C, cells were washed three times before read out was performed on a FACS Array (Becton Dickinson). First a gate was set on the intact cells as determined from the scatter profile. Next, dead cells were gated out by their fluorescence profile from the PI stain (Sigma, St Louis, US). The fluorescence profile from the alexa647 label was determined for each sample and used for calculation of blocking capacity. As controls, conditions were taken along where there was no VHH present in the peri extract or a known irrelevant VHH and samples were included where excess cold fractalkine was included. For each sample the percentage block was determined using the control samples to determine the assay window.
(§2) The blocking capacity towards the ligand fractalkine of the VHHs was evaluated in a human CX3CR1 competition FACS as outlined in Example 4. Either CHO-huCX3CR1 cells, BA/F3-huCX3CR1 cells or transiently transfected HEK293T cells were used. The amount of labeled ligand used in the different competition setups was also varied. The IC₅₀ values for VHHs blocking the interaction of human fractalkine to human CX3CR1 are depicted in Table 19.

[2] = molecular target: T1, human CX3CR1; test: competition FACS, BA/F3-huCX3CR1; competitor alexa647-labeled 66B02
Description: A competitive binding experiment was setup in order to determine whether the VHHs bind overlapping epitopes on CX3CR1. For this, the VHH 66B02 labeled with alexa647 was used in a competition FACS on the BA/F3 cells expressing huCX3CR1. Representative VHHs from the three functional families were used as competitors for the binding of the labeled 66B02.

[3] = molecular target: T1, human CX3CR1; test: fractalkine competition FACS
[4] = molecular target: T2, cynomolgus CX3CR1 (cynomolgus, UniProt P49238 1-355 (human entry)); test: A647-fractalkine competition FACS, cynomolgus against human CX3CR1
T2 construct: transiently expressed on HEK293T cells; also called cyCX3CR1; cyno CX3CR1
T2 chain: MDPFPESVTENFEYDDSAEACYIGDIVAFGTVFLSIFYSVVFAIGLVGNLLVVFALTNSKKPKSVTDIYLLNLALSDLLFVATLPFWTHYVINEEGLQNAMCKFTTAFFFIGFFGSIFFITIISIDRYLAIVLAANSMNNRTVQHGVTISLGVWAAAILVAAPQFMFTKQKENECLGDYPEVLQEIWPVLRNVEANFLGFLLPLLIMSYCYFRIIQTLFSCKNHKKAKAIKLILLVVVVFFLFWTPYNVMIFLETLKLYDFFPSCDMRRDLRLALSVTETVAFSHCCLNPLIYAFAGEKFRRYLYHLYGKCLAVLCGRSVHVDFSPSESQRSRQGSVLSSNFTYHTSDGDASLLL
Description: as §1
(§3) For later identified VHHs, a human Fractalkine competition FACS was set up using human or cynomolgus CX3CR1 expressed in HEK293T cells. Both the human and the cynomolgus receptor was transiently transfected in HEK293T cells and transfections were matched by the binding of the labeled ligand, human fractalkine. The competition was evaluated using the EC30 concentration of fractalkine and as such obtained IC50 values are a good estimate of the Ki value, a measure for affinity (Table 22). The experiment was performed as described in Example 4.

[5] = molecular target: T1, human CX3CR1; test: cell-based or functional assay
[6] = molecular target: T1, human CX3CR1; test: A647-fractalkine competition FACS, HEK293T human CX3CR1
Description: as §1, §3

[7] = molecular target: T1, human CX3CR1; test: fractalkine competition FACS; remark: listed apart in the source
[8] = molecular target: T1, human CX3CR1; test: fractalkine competition FACS; remark: listed apart in the source
[9] = molecular target: T2, cynomolgus CX3CR1; test: A647-fractalkine competition FACS, HEK293T cynomolgus CX3CR1
Description: as §1, §3

[10] = molecular target: T1, human CX3CR1; test: cell-based or functional assay; remark: listed apart in the source
[11] = molecular target: T1, human CX3CR1; test: A647-fractalkine competition FACS, CHO-huCX3CR1
Description: as §1, §2

[12] = molecular target: T1, human CX3CR1; test: periplasmic extract, A647-fractalkine competition FACS, CHO-huCX3CR1
Description: as §1

[13] = molecular target: T1, human CX3CR1; test: A647-fractalkine competition FACS, BA/F3-huCX3CR1
Description: as §1, §2

[14] = molecular target: T1, human CX3CR1; test: FACS binding on human CX3CR1 cells, anti-c-myc detection
Protocol: Initially, a FACS based binding setup was used to evaluate the cynomolgus cross reactivity. For this, the VHHs were incubated with the respective cells for 30 minutes at 4° C. followed by three wash steps and subsequently incubated with the detection reagents. As detection, a mouse anti-cmyc antibody (Serotec, MCA2200) followed by a goat anti-mouse antibody coupled to PE (Jackson 115-116-071) was used, each incubation for 30 minutes at 4° C., followed by three wash steps.

B1: CX3CR1BIIPMP66B02 (VHH)
VHH: EVQLVESGGGSVQAGESLRLSCAASGSIFSSNAMAWYRQAPGKRRDLVAAINSVGVTKYADSVKGRFTISRDNAKNTVYLQMNSLKPEDTAVYYCTSDPRRGWDTRYWGQGTQVTVSS
modifications: alexa647 label where used as labeled competitor (Table 23)
notes: also called CX3CR1BII66B02; C100CX3CR1BII66B02; not shown: C-terminal c-myc and His6 tags
- % block [1]: 102%
- IC50 [1]: 2.5 nM
- % block [2]: 100%
- IC50 [2]: 1.5 nM
- % block [3]: 101%
- IC50 [3]: 2.6 nM
- ratio (cynomolgus/human IC50) [4]: 7.5
- % block, ligand induced chemotaxis [5]: 91%
- IC50, ligand induced chemotaxis [5]: 36 nM
- % block [6]: 102%
- IC50 [6]: 2.5 nM
- % block [7]: 98%
- IC50 [7]: 2.5 nM
- % block [8]: 98%
- IC50 [8]: 2.5 nM
- % block [9]: 97%
- IC50 [9]: 19 nM
- % block, fractalkine induced chemotaxis [10]: 87%
- IC50, fractalkine induced chemotaxis [10]: 20 nM

B3: CX3CR1BIIPMP54G3 (VHH)
VHH: B1 VHH with R44Q, A50L, V56I, Q113L
notes: also called 54G03; not shown: C-terminal c-myc and His6 tags
- % block [1]: 89%
- IC50 [1]: 270 nM
- % block [11]: 107%
- IC50 [11]: 56 nM
- % block [12]: 74.7%
- % block [13]: 98%
- IC50 [13]: 98 nM
- ratio (cynomolgus/human IC50) [4]: 1.74
- % block [6]: 89%
- IC50 [6]: 270 nM
- % block [9]: 89%
- IC50 [9]: 470 nM
- % block, fractalkine induced chemotaxis [10]: 40%

B5: CX3CR1BII00306 (VHH)
VHH: B1 VHH with E1D, S11L, A14P, E16G, N32T, N52S, A74S, K86R, Q113L
notes: also called CX3CR1BII306
- % block, ligand induced chemotaxis [5]: 95%
- IC50, ligand induced chemotaxis [5]: 63 nM
- % block [8]: 97%
- IC50 [8]: 1.7 nM

More lines, now with the values ahead:

- % block, ligand induced chemotaxis [5]: 100%
- IC50, ligand induced chemotaxis [5]: 63 nM
- % block [8]: 97%
- IC50 [8]: 1.9 nM
B2: CX3CR1BII00307 (VHH)
VHH: B1 VHH with E1D, S11L, A14P, E16G, N32T, N52S, S53T, A74S, K86R, Q113L
notes: also called CX3CR1BII307

- % block, ligand induced chemotaxis [5]: 89%
- IC50, ligand induced chemotaxis [5]: 44 nM
- % block [8]: 97%
- IC50 [8]: 1.6 nM
B4: CX3CR1BII00308 (VHH)
VHH: B1 VHH with E1D, S11L, A14P, E16G, A74S, K86R, Q113L
notes: also called CX3CR1BII308

- % block [2]: 100%
- IC50 [2]: 4.9 nM
- % block [11]: 100%
- IC50 [11]: 17 nM
- % block [12]: 99%
- % block [13]: 100%
- IC50 [13]: 8.1 nM
- EC50 [14]: 0.8 nM
- % block, fractalkine induced chemotaxis [10]: 89%
- IC50, fractalkine induced chemotaxis [10]: 200 nM
B6: CX3CR1BIIPMP11H11 (VHH)
VHH: EVQLVESGGGLVQAGGSLRLSCVASGRTFSSYAMGWFRQAPGKERAFVAGISGSASRKYYADSVKGRFTVSRDNARNTVYLQMNSLKPEDTAVYYCAASNSYPKVQFDYYGQGTQVTVSS
notes: family 9; also called CX3CR1BII11H11; not shown: C-terminal c-myc and His6 tags

From US20130224224A1 (Boehringer Ingelheim, published 2013)
